# Data taken from US20240132578A1.
# What was measured:
# Test in all cases: cell-based or functional assay
# [1] = biological target: HIV-1 MGRM-AE-003 Env (pseudovirus) (HIV-1)
# [2] = biological target: HIV-1 Env of isolate 92RW020 (Clade A) (HIV-1)
# [3] = biological target: HIV-1 MGRM-G-001 Env (pseudovirus) (HIV-1)
# [4] = biological target: HIV-1 Env of isolate APV_17, clade B (HIV-1)
# [5] = biological target: HIV-1 Env of isolate MGRM-D-028 (clade D pseudovirus) (HIV-1)
# [6] = biological target: HIV-1 envelope glycoprotein (Env) of isolate MGRM-C-010 (HIV-1)
# [7] = biological target: HIV-1 92BR020 envelope (Env) on pseudovirus (HIV-1)
# [8] = biological target: HIV-1 Env of isolate 92UG037 (clade A pseudovirus) (HIV-1)
# [9] = biological target: HIV-1 Env of isolate MGRM-A-012 (clade A pseudovirus) (HIV-1)
# [10] = biological target: HIV-1 Env of isolate 92UG001 (clade D pseudovirus) (HIV-1)
# [11] = biological target: HIV-1 Env of isolate APV_6, clade B (HIV-1)
# [12] = biological target: HIV-1 Env of isolate MGRM-D-004 (clade D pseudovirus) (HIV-1)
# [13] = biological target: HIV-1 Env of isolate MGRM-D-020 (clade D pseudovirus) (HIV-1)
# [14] = biological target: HIV-1 Env of isolate MGRM-AE-007 (pseudovirus) (HIV-1)
# [15] = biological target: HIV-1 Env of isolate MGRM-G-017 (subtype G) (HIV-1)
# [16] = biological target: HIV-1 MGRM-C-026 Env (HIV-1)
# [17] = biological target: HIV-1 Env of isolate MGRM-AE-002 (pseudovirus) (HIV-1)
# [18] = biological target: HIV-1 Env of isolate MGRM-G-028 (subtype G) (HIV-1)
# [19] = biological target: HIV-1 94UG103 Env (HIV-1)
# [20] = biological target: HIV-1 envelope glycoprotein (Env) of isolate QH0692.42, on pseudovirus (HIV-1)
# [21] = biological target: HIV-1 Env of isolate MGRM-F1-021 (pseudovirus) (HIV-1)
# [22] = biological target: HIV-1 envelope glycoprotein (Env) of isolate 92TH021, subtype AE (HIV-1)
# [23] = biological target: HIV-1 envelope glycoprotein (Env) of isolate MGRM-Chronic-B-018, on pseudovirus (HIV-1)
# [24] = biological target: HIV-1 envelope glycoprotein (Env) of isolate MG RM-A-004, subtype A (HIV-1)
# [25] = biological target: HIV-1 envelope glycoprotein (Env) of isolate 92RW008, subtype A (HIV-1)
# [26] = biological target: HIV-1 envelope glycoprotein (Env) of isolate 93UG077, subtype A (HIV-1)
# [27] = biological target: HIV-1 JR-CSF Env K421A (HIV-1 (isolate JR-CSF)) (UniProt P20871)
# [28] = biological target: HIV-1 JR-CSF Env N392Q (HIV-1 (isolate JR-CSF)) (UniProt P20871)
# [29] = biological target: HIV-1 JR-CSF Env N411A (HIV-1 (isolate JR-CSF)) (UniProt P20871)
Substance,"IC50 (µg/ml), pseudovirus neutralization [1]",IC90 (neutralization of pseudovirus) [2],"IC50 (µg/ml), pseudovirus neutralization [3]","IC50 (µg/ml), pseudovirus neutralization [4]","IC50, pseudovirus neutralization [5]","IC50 (µg/ml), pseudovirus neutralization [6]",neutralization IC50 [7],"IC50 (µg/ml), pseudovirus neutralization [8]","IC50 (µg/ml), pseudovirus neutralization [9]","IC50, pseudovirus neutralization [10]","IC50 (µg/ml), pseudovirus neutralization [11]","IC50, pseudovirus neutralization [12]","IC50, pseudovirus neutralization [13]","IC50 (µg/mL), pseudovirus neutralization [14]","IC50, pseudovirus neutralization [16]","IC50, pseudovirus neutralization [19]","IC50, pseudovirus neutralization [20]","IC50 (µg/mL), pseudovirus neutralization [21]","IC50, pseudovirus neutralization [22]","IC50, pseudovirus neutralization [23]",also measured
2F5 (antibody),0.24 µg/mL,27.7 µg/mL,4.1 µg/mL,4.61 µg/mL,> 50 µg/mL,> 50 µg/mL,> 50 µg/mL,3.24 µg/mL,2.36 µg/mL,13 µg/mL,0.25 µg/mL,2.3 µg/mL,> 50 µg/mL,,,,,,,,
2G12 (antibody),> 50 µg/mL,6.23 µg/mL,> 50 µg/mL,> 50 µg/mL,> 50 µg/mL,> 50 µg/mL,2.26 µg/mL,45.2 µg/mL,> 50 µg/mL,> 50 µg/mL,1.9 µg/mL,> 50 µg/mL,> 50 µg/mL,,,,,,,,
4E10 (antibody),0.34 µg/mL,36.1 µg/mL,2.04 µg/mL,10.5 µg/mL,1.28 µg/mL,11 µg/mL,41.4 µg/mL,8.84 µg/mL,4.27 µg/mL,13.6 µg/mL,1.1 µg/mL,1.58 µg/mL,> 50 µg/mL,,,,,,,,
1495_C14 (PGC14) (antibody),> 50 µg/mL,,> 50 µg/mL,> 50 µg/mL,> 50 µg/mL,> 50 µg/mL,0.637 µg/mL,> 50 µg/mL,> 50 µg/mL,> 50 µg/mL,23 µg/mL,> 50 µg/mL,> 50 µg/mL,,,,,,,,
1496_C09 (PG9) (TCN-109) (antibody),,6.55 µg/mL,0.16 µg/mL,14.6 µg/mL,4.39 µg/mL,12.4 µg/mL,,,11.2 µg/mL,41.8 µg/mL,0.12 µg/mL,0.03 µg/mL,2.03 µg/mL,0.18 µg/mL,0.113 µg/mL,0.31 µg/mL,,,,,"IC50 (µg/mL), pseudovirus neutralization [15]: 0.104 µg/mL; IC50 (µg/mL), pseudovirus neutralization [17]: 0.04 µg/mL; IC50 (µg/mL), pseudovirus neutralization [18]: 0.891 µg/mL"
4838_L06 (PGT-121) (antibody),,,,,,,,,,,,,,,,,0.823 µg/mL,0.099 µg/mL,> 50 µg/mL,> 50 µg/mL,"IC50, pseudovirus neutralization [24]: > 50 µg/mL; IC50, pseudovirus neutralization [25]: 0.003 µg/mL; IC50, pseudovirus neutralization [26]: 0.019 µg/mL"
4858_P08 (PGT-123) (antibody),,,,,,,,,,,,,,> 50 µg/mL,0.0031 µg/mL,0.846 µg/mL,0.158 µg/mL,0.307 µg/mL,> 50 µg/mL,> 50 µg/mL,"Fold IC50 increase relative to wild-type (pseudovirus neutralization) [27]: 0.9 fold; IC50, pseudovirus neutralization [24]: > 50 µg/mL; Fold IC50 increase relative to wild-type (pseudovirus neutralization) [28]: 1 fold; IC50, pseudovirus neutralization [25]: 0.003 µg/mL; IC50, pseudovirus neutralization [26]: 0.028 µg/mL; Fold IC50 increase relative to wild-type (pseudovirus neutralization) [29]: 0.5 fold"
4877_D15 (PGT-122) (antibody),,,,,,,,,,,,,,> 50 µg/mL,0.0089 µg/mL,1.46 µg/mL,0.493 µg/mL,2.3 µg/mL,> 50 µg/mL,> 50 µg/mL,"IC50, pseudovirus neutralization [24]: > 50 µg/mL; IC50, pseudovirus neutralization [25]: 0.003 µg/mL; IC50, pseudovirus neutralization [26]: 0.084 µg/mL"
